Results published in US20220332829A1 (NANJING SANHOME PHARMACEUTICAL, published 2022).

Tests used:
[1] = target: T1, human 2Ig-B7-H3-His protein (human, UniProt Q5ZPR3 29-463); assay: ELISA, plate coated with human 2Ig-B7-H3-His, detection with anti-human IgG HRP, OD450
T1 sequence: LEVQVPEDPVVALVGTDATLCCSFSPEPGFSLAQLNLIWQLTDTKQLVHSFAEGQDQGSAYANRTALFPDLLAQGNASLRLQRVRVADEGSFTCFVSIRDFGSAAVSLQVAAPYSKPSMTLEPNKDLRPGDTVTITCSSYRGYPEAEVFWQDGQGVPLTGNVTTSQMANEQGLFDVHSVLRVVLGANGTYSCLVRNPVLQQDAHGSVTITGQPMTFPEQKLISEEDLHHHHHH
Description: The binding activity of antibodies was analyzed by ELISA. 96-well ELISA plates were coated with human 4Ig-B7-H3-His protein or 2Ig-B7-H3-His protein (1 μg/well, prepared in Examples 1 and 2) and incubated overnight at 4° C. The plates were washed 3 times with 1×PBST and then blocked with 5% skim milk at 37° C. for 2 h. After washing 3 times with 1×PBST, the anti-B7-H3 antibody of the present disclosure was used as the primary antibody and added to the ELISA plates in 5-fold gradient dilution starting from 2 μg/mL with a total of 8 concentrations: 2,000 ng/mL, 400 ng/mL, 80 ng/mL, 16 ng/mL, 3.2 ng/mL, 0.64 ng/mL, 0.128 ng/mL and 0.0256 ng/mL respectively. The plates were incubated at 37° C. for 2 h with hBRCA84D as the positive control antibody. After washing 5 times with 1×PBST, Anti-Human IgG HRP (Jackson, 109-035-003, 1:5000) was used as the secondary antibody and incubated at 37° C. for 1 h. After washing 5 times with 1×PBST, color developing solution TMB was added to the plate, and microplate reader (Thermo, Multiskan FC) was used to read OD450 value after termination of the reaction. EC₅₀ was generated by GraphPad.

[2] = target: T2, Cynomolgus B7-H3-His (Sino Biological, Cat. No. 90806-C08H) (cynomolgus monkey); assay: ELISA, plate coated with cynomolgus B7-H3-His, detection with anti-human IgG HRP, OD450
T2 construct: Bought reagent; also called cynomolgus monkey B7-H3; monkey B7-H3
Description: The binding activity of antibodies was analyzed by protein based ELISA. Cynomolgus B7-H3-His (0.5 μg/well, Sino Biological, Cat. No. 90806-C08H) was coated on 96-well ELISA plates. The anti-B7-H3 antibodies of the present disclosure was used as the primary antibody and added to the ELISA plates in 5-fold gradient dilution starting from 2 μg/mL with a total of 8 concentrations: 2,000 ng/mL, 400 ng/mL, 80 ng/mL, 16 ng/mL, 3.2 ng/mL, 0.64 ng/mL, 0.128 ng/mL, and 0.0256 ng/mL respectively. The plates were incubated at 37° C. for 2 h with AB06.12-4P as the positive control antibody. Anti-Human IgG HRP (Jackson, 109-035-003, 1:10,000) was used as the secondary antibody. Color developing solution TMB (3,3′,5,5′-tetramethylbenzidine) was added to the plate, and microplate reader (Thermo, Multiskan FC) was used to read OD450 value after termination of the reaction. EC₅₀ was generated by GraphPad.

[3] = target: T3, B7-H3 on surface of tumor cell (786-0, MDA-MB-231, Raji-B7-H3 cells) (human, UniProt Q5ZPR3 29-534); assay: FACS on 786-0 cells
T3 construct: whole, on cells; The making of Raji-B7-H3 cells is not described; also called B7-H3 on the surface of tumor cells; human B7-H3
T3 sequence (looked up): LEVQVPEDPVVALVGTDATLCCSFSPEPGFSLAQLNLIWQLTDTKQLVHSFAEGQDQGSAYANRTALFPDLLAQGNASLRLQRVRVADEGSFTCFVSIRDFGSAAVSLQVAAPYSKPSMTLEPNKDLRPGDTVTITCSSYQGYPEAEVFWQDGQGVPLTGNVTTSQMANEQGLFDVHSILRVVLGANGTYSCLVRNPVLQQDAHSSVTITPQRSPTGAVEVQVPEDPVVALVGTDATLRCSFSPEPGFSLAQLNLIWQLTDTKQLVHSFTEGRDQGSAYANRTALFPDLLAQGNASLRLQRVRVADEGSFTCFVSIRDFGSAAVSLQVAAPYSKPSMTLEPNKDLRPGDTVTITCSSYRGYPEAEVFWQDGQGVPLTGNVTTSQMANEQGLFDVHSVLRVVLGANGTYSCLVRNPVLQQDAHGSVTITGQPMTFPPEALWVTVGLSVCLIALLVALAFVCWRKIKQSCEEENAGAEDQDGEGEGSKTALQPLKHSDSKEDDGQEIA
Description: (§1) The binding activity of antibodies to B7-H3 on the surface of tumor cells was analyzed by FACS. Mean fluorescence intensity (MFI) and EC₅₀ detected by FACS indicate the binding activity of the antibody to cells. After 786-0 and MDA-MB-231 cells were digested, they were resuspended in 2% FBS-PBS solution and counted. After raji-B7-H3 cells were collected, they were resuspended in 2% FBS-PBS and counted. The above cells were plated in a cell plate with 1×10⁵ cells per well. The anti-B7-H3 antibody of the present disclosure was used as the primary antibody and added to cell plates in gradient dilution starting from 20 μg/mL with a total of 8 concentrations: 20,000 ng/mL, […], 2,000 ng/mL, 400 ng/mL, 80 ng/mL, 16 ng/mL, 3.2 ng/mL, and 0.64 ng/mL respectively. The plates were incubated at 4° C. for 1 h with hBRCA84D as the positive control antibody. PE-Anti-Human IgG (Biolegend, Cat. No. 409303, 1.25 μl/well) was used as the secondary antibody, washed, and detected for the fluorescence intensity generated by the binding of the antibody to the cell surface by a flow cytometer.

[4] = target: T3, B7-H3 on surface of tumor cell (786-0, …); assay: FACS on MDA-MB-231 cells
Description: as §1

EC50 (read off the curve) [1]: ~0.01 µg/mL
EC50 (read off the curve) [2]: ~0.006 µg/mL
EC50 [3]: 0.226 µg/mL
Mean fluorescence intensity (MFI) [3]: 233000
EC50 [4]: 0.384 µg/mL
Mean fluorescence intensity (MFI) [4]: 35800
B1: hBRCA84D (antibody, human IgG1, kappa, V domains shown)
VH: EVQLVESGGGLVQPGGSLRLSCAASGFTFSSFGMHWVRQAPGKGLEWVAYISSDSSAIYYADTVKGRFTISRDNAKNSLYLQMNSLRDEDTAVYYCGRGRENIYYGSRLDYWGQGTTVTVSS
VL: DIQLTQSPSFLSASVGDRVTITCKASQNVDTNVAWYQQKPGKAPKALIYSASYRYSGVPSRFSGSGSGTDFTLTISSLQPEDFATYYCQQYNNYPFTFGQGTKLEIKR
notes: Humanized antibody from WO2011/109400; also called positive control antibody hBRCA84D; control antibody hBRCA84D
